The results in this text go back to paper PMC8896507.

The target of test [1] is DNA-PK assembly (KU-DNA-DNA-PKcs) (human (endogenous in HeLa)) (UniProt P78527). The test is described as follows: SEC-MALS + other: SAXS.
For test [2], the target named is KU (KU70/KU80 heterodimer) (human (endogenous in HeLa)) (UniProt P12956). Kind of test: SEC-MALS + other: SAXS.

As for “DNA-PK assembly (KU-DNA-DNA-PKcs) (from UniProt P78527 1-4128; P12956 1-609; P13010 1-732) (complex)”, the weight of the dimer in the two-state SAXS fit in test [1] was determined as 24%. The stoichiometry N is a count of units in the complex or per binding partner. In the case of “KU (KU70/KU80 heterodimer) (from UniProt P12956 1-609; P13010 1-732) (complex)”, the stoichiometry N in test [2] was 2.
